94 variants from the supplement of paper PMC10567573 can be followed below.

B1: ARL6IP1 (parent)
chain: YLDPSVLSGVSCFVMFLCLADYLV
B2: DLC1 (parent)
chain: KRSWEEHVTHWMGQPFNSDDRNTA
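Note: lentivirally expressed fusions sorted by FACS into six bins by GFP to DsRed ratio, PSI derived from sequencing read proportions per bin multiplied by bin number.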

Variants of B1 are the subject of the first series. Put plainly: protein stability index of a GFP-peptide fusion (GPS, HEK-293T) (PSI 1-6); higher = more stable. The note with it: c terminus: a fixed tail appended.
Consider YQDPSVLSGVSCFVMFLCLADYLV [L2Q], for which the protein stability index was found to be 2.09.

Turning to YCDPSVLSGVSCFVMFLCLADYLV [L2C], the protein stability index was 2.99.

As to YLDPSVYSGVSCFVMFLCLADYLV [L7Y], the protein stability index was 2.89.

For YLDPSVHSGVSCFVMFLCLADYLV [L7H], the protein stability index worked out at 3.82.

Take YLDPSVPSGVSCFVMFLCLADYLV [L7P]: the protein stability index was 2.4.

Take YLDPSVCSGVSCFVMFLCLADYLV [L7C]: the protein stability index was 1.88.

With YLDPSVSSGVSCFVMFLCLADYLV [L7S], the protein stability index amounted to 3.62.

With YLDPSVMSGVSCFVMFLCLADYLV [L7M], the protein stability index was 2.98.

In the case of YLDPSVASGVSCFVMFLCLADYLV [L7A], the protein stability index is 3.11.

Regarding YLDPSVVSGVSCFVMFLCLADYLV [L7V], the protein stability index came out at 3.69.

On to YLDPSVTSGVSCFVMFLCLADYLV [L7T], for which the protein stability index amounted to 2.8.

Consider YLDPSVNSGVSCFVMFLCLADYLV [L7N], for which the protein stability index stood at 2.74.

Take YLDPSVQSGVSCFVMFLCLADYLV [L7Q]: the protein stability index stood at 4.

Turning to YLDPSVLSGVECFVMFLCLADYLV [S11E], the protein stability index is 4.25.

As for YLDPSVLSGVCCFVMFLCLADYLV [S11C], the protein stability index was found to be 3.23.

Take YLDPSVLMGVSCFVMFLCLADYLV [S8M]: the protein stability index is 2.26.

In the case of YLDPSVLIGVSCFVMFLCLADYLV [S8I], the protein stability index amounted to 2.96.

For the variant YLDPSVLCGVSCFVMFLCLADYLV [S8C], the protein stability index amounted to 3.59.

For YLDPSVLNGVSCFVMFLCLADYLV [S8N], the protein stability index was 3.35.

With YLDPSVLTGVSCFVMFLCLADYLV [S8T], the protein stability index is 2.79.

On to YLDPSVLFGVSCFVMFLCLADYLV [S8F], for which the protein stability index came out at 3.22.

For the variant YLDPSVLVGVSCFVMFLCLADYLV [S8V], the protein stability index amounted to 3.82.

In the case of YLDPSVLLGVSCFVMFLCLADYLV [S8L], the protein stability index came out at 3.77.

For the variant YLDPSVLGGVSCFVMFLCLADYLV [S8G], the protein stability index amounted to 3.79.

For the variant YLDPSVLRGVSCFVMFLCLADYLV [S8R], the protein stability index came to 2.95.

YLDPSVLHGVSCFVMFLCLADYLV [S8H]: the protein stability index amounted to 3.58.

The next series covers variants of B2. The series is described as above. The note with it: c terminus: a fixed tail appended.
KRSWEEHVTHWMGQPFNSDDKNTA [R21K]: the protein stability index came to 3.32.

On to KRSWEEHVTHWMGQPFNSDDNNTA [R21N], for which the protein stability index came to 3.91.

As for KRSWEEHVTHWMGQPFNSDDTNTA [R21T], the protein stability index was 3.08.

As to KRSWEEHVTHWMGQPFNSDDQNTA [R21Q], the protein stability index stood at 3.07.

KRSWEEHVTHWMGQPFNSDDVNTA [R21V]: the protein stability index is 3.31.

Take KRSWEEHVTHWMGQPFNSDDPNTA [R21P]: the protein stability index is 2.6.

KRSWEEHVTHWMGQPFNSDDMNTA [R21M]: the protein stability index was determined as 2.27.

Take KRSWEEHVTHWMGQPFNSDDSNTA [R21S]: the protein stability index came to 2.9.

As for KRSWEEHVTHWMGQPFNSDDWNTA [R21W], the protein stability index was 2.92.

With KRSWEEHVTHWMGQPFNSDDLNTA [R21L], the protein stability index worked out at 3.36.

In the case of KRSWEEHVTHWMGQPFNSDDYNTA [R21Y], the protein stability index is 2.55.

For KRSWEEHVTHWMGQPFNSDDRGTA [N22G], the protein stability index stood at 2.81.

In the case of KRSWEEHVTHWMGQPFNSDDRTTA [N22T], the protein stability index turned out to be 2.29.

Take KRSWEEHVTHWMGQPFNSDDRMTA [N22M]: the protein stability index was determined as 2.28.

As to KRSWEEHVTHWMGQPFNSDDRDTA [N22D], the protein stability index is 2.59.

Regarding KRSWEEHVTHWMGQPFNSDDRCTA [N22C], the protein stability index is 1.94.

On to KRSWEEHVTHWMGQPFNSDDRKTA [N22K], for which the protein stability index was 3.02.

For the variant KRSWEEHVTHWMGQPFNSDDRATA [N22A], the protein stability index is 1.81.

For KRSWEEHVTHWMGQPFNSDDRFTA [N22F], the protein stability index turned out to be 2.04.

With KRSWEEHVTHWMGQPFNSDDRHTA [N22H], the protein stability index came to 2.04.

On to KRSWEEHVTHWMGQPFNSDDRPTA [N22P], for which the protein stability index was found to be 2.73.

Consider KRSWEEHVTHWMGQPFNSDDRWTA [N22W], for which the protein stability index is 1.7.

KRSWEEHVTHWMGQPFNSDDRETA [N22E]: the protein stability index was determined as 2.56.

As to KRSWEEHVTHWMGQPFNSDDRVTA [N22V], the protein stability index was 2.49.

In the case of KRSWEEHVTHWMGQPFNSDDRITA [N22I], the protein stability index worked out at 2.12.

Turning to KRSWEEHVTHWMGQPFNSDDRYTA [N22Y], the protein stability index came out at 2.09.

Regarding KRSWEEHVTHWMGQPFNSDDRQTA [N22Q], the protein stability index turned out to be 2.67.

Regarding KRSWEEHVTHWMGQPFNSDDRSTA [N22S], the protein stability index is 2.74.

On to KRSWEEHVTHWMGQPFNSDDRLTA [N22L], for which the protein stability index amounted to 2.06.

KRSWEEHVTHWMGQPFNSDDRRTA [N22R]: the protein stability index is 2.53.

KRSWEEHVTHWMGQPFNSDDRNTW [A24W]: the protein stability index stood at 2.6.

KRSWEEHVTHWMGQPFNSDDRNTV [A24V]: the protein stability index worked out at 3.28.

Turning to KRSWEEHVTHWMGQPFNSDDRNTR [A24R], the protein stability index was determined as 2.86.

As to KRSWEEHVTHWMGQPFNSDDRNTC [A24C], the protein stability index was 2.32.

Consider KRSWEEHVTHWMGQPFNSDDRNTF [A24F], for which the protein stability index was 2.37.

On to KRSWEEHVTHWMGQPFNSDDRNTP [A24P], for which the protein stability index amounted to 2.92.

Take KRSWEEHVTHWMGQPFNSDDRNTQ [A24Q]: the protein stability index stood at 3.18.

Regarding KRSWEEHVTHWMGQPFNSDDRNTG [A24G], the protein stability index came to 2.97.

Consider KRSWEEHVTHWMGQPFNSDDRNTH [A24H], for which the protein stability index came out at 2.9.

As for KRSWEEHVTHWMGQPFNSDDRNTS [A24S], the protein stability index amounted to 2.67.

On to KRSWEEHVTHWMGQPFNSDDRNTT [A24T], for which the protein stability index came out at 2.43.

With KRSWEEHVTHWMGQPFNSDDRNTE [A24E], the protein stability index worked out at 3.59.

For KRSWEEHVTHWMGQPFNSDDRNTL [A24L], the protein stability index was found to be 2.89.

As for KRSWEEHVTHWMGQPFNSDDRNTM [A24M], the protein stability index was determined as 2.09.

Regarding KRSWEEHVTHWMGQPFNSDDRNTD [A24D], the protein stability index was determined as 2.82.

For KRSWEEHVTHWMGQPFNSDDRNTY [A24Y], the protein stability index stood at 1.72.

As for KRSWEEHVTHWMGQPFNSDDRNTN [A24N], the protein stability index is 2.23.

As for KRSWEEHVTHWMGQPFNSDDRNTI [A24I], the protein stability index was determined as 2.81.

For KRSWEEHVTHWMGQPFNSDDRNTK [A24K], the protein stability index is 3.54.

As for KRSWEEHVTHWMGQPFNSDDRNFA [T23F], the protein stability index was determined as 2.13.

On to KRSWEEHVTHWMGQPFNSDDRNGA [T23G], for which the protein stability index was 2.69.

KRSWEEHVTHWMGQPFNSDDRNYA [T23Y]: the protein stability index turned out to be 2.16.

Take KRSWEEHVTHWMGQPFNSDDRNAA [T23A]: the protein stability index amounted to 2.22.

KRSWEEHVTHWMGQPFNSDDRNPA [T23P]: the protein stability index worked out at 2.46.

As to KRSWEEHVTHWMGQPFNSDDRNDA [T23D], the protein stability index worked out at 3.26.

As to KRSWEEHVTHWMGQPFNSDDRNHA [T23H], the protein stability index worked out at 2.23.

As for KRSWEEHVTHWMGQPFNSDDRNSA [T23S], the protein stability index was determined as 2.26.

On to KRSWEEHVTHWMGQPFNSDDRNQA [T23Q], for which the protein stability index came to 3.27.

KRSWEEHVTHWMGQPFNSDDRNLA [T23L]: the protein stability index is 2.08.

For the variant KRSWEEHVTHWMGQPFNSDDRNMA [T23M], the protein stability index was 1.73.

With KRSWEEHVTHWMGQPFNSDDRNEA [T23E], the protein stability index is 2.73.

On to KRSWEEHVTHWMGQPFNSDDRNKA [T23K], for which the protein stability index worked out at 2.74.

Take KRSWEEHVTHWMGQPFNSDDRNVA [T23V]: the protein stability index turned out to be 2.13.

With KRSWEEHVTHWMGQPFNSDDRNWA [T23W], the protein stability index came out at 1.79.

As for KRSWEEHVTHWMGQPFNSDDRNRA [T23R], the protein stability index came to 2.65.

In the case of KRSWEEHVTHWMGQPFNSDDRNCA [T23C], the protein stability index amounted to 3.51.

For KRSWEEHVTHWMGQPFNSDDRNIA [T23I], the protein stability index was 2.35.

As for KRSWEEHVTHWMGQPFNSDDRNNA [T23N], the protein stability index came to 2.74.
